Blank lines part the entries; values can stand above or below the binder they belong to. Starred links: 1 amine or outer side, 2 acyl side, 3 side chain; linkers in the order of their positions; H or OH if unused. Primed or numbered codes have the meaning given here. DPPE′ = dipalmitoylphosphatidylethanolamine; Glutaryl = O=C(CCCC(=O)[*:2])[*:1]
Key:
[1] = target: binding target for TKPPR on HAEC (human aortic endothelial cells); experiment: static bubble binding to HAEC, manual count
[2] = target: binding target for TKPPR on HAEC (human aortic endothelial cells); experiment: static bubble binding to HAEC, 5% composition
[3] = target: KB cells (human epidermoid carcinoma cell line); experiment: static bubble binding to KB cells, 5% composition
[4] = target: binding target for TKPPR on HAEC (human aortic endothelial cells); experiment: static bubble binding to HAEC, 1% D47, no competitor
[5] = target: binding target for TKPPR on HAEC (human aortic endothelial cells); experiment: static bubble binding to HAEC, 5% D47, no competitor
[6] = target: binding target for TKPPR on HAEC (human aortic endothelial cells); experiment: static bubble binding to HAEC, 2% D47, no competitor
[7] = target: binding target for TKPPR on HAEC (human aortic endothelial cells); experiment: static bubble binding to HAEC, 10% D47, no competitor
[8] = target: binding target for TKPPR on HAEC (human aortic endothelial cells); experiment: static bubble binding to HAEC, 5% composition, no competitor
[9] = target: binding target for TKPPR on RAEC (rabbit aortic endothelial cells); experiment: static bubble binding to RAEC, 5% composition, no competitor
[10] = target: binding target for TKPPR on HAEC (human aortic endothelial cells); experiment: static bubble binding to HAEC, 1% composition, no competition
[11] = target: binding target for TKPPR on HAEC (human aortic endothelial cells); experiment: static bubble binding to HAEC, 5% composition, no competition
[12] = target: binding target for TKPPR on HAEC (human aortic endothelial cells); experiment: static bubble binding to HAEC, 5% composition, untreated cells
[13] = target: binding target for TKPPR on HAEC (human aortic endothelial cells); experiment: static bubble binding to HAEC treated 4 h with 1 ng/mL TNFα, 5% composition
[14] = target: binding target for TKPPR on HAEC (human aortic endothelial cells); experiment: static bubble binding to HAEC treated 4 h with 5 ng/mL TNFα, 5% composition
[15] = target: binding target for TKPPR on HAEC (human aortic endothelial cells); experiment: static bubble binding to HAEC treated 4 h with 10 ng/mL TNFα, 5% composition
[16] = target: binding target for TKPPR on HAEC (human aortic endothelial cells); experiment: static bubble binding to HAEC, 5% composition, no competitor (same control as Table 13)
VEGF receptors on HUVECs = experiment: competition with 125I-VEGF for binding to HUVECs
[17] = target: binding target for TKPPR on HAEC (human aortic endothelial cells); experiment: competition of 1% composition bubble binding to HAEC
[18] = target: binding target for TKPPR on HAEC (human aortic endothelial cells); experiment: competition of 5% composition bubble binding to HAEC
[19] = target: binding target for TKPPR on HAEC (human aortic endothelial cells); experiment: competition of 1% D47 bubble binding to HAEC; TKPPR 5 µM
[20] = target: binding target for TKPPR on HAEC (human aortic endothelial cells); experiment: competition of 2% D47 bubble binding to HAEC; TKPPR 25 µM
[21] = target: binding target for TKPPR on HAEC (human aortic endothelial cells); experiment: competition of 1% D47 bubble binding to HAEC; TKPPR 10 µM
[22] = target: binding target for TKPPR on HAEC (human aortic endothelial cells); experiment: competition of 1% D47 bubble binding to HAEC; TKPPR 25 µM
[23] = target: binding target for TKPPR on HAEC (human aortic endothelial cells); experiment: competition of 1% D47 bubble binding to HAEC; TKPPR 50 µM
[24] = target: binding target for TKPPR on HAEC (human aortic endothelial cells); experiment: competition of 1% D56 bubble binding to HAEC; TKPPR 10 µM
[25] = target: binding target for TKPPR on HAEC (human aortic endothelial cells); experiment: competition of 1% D56 bubble binding to HAEC; TKPPR 25 µM
[26] = target: binding target for TKPPR on HAEC (human aortic endothelial cells); experiment: competition of 1% D56 bubble binding to HAEC; TKPPR 50 µM
[27] = target: binding target for TKPPR on HAEC (human aortic endothelial cells); experiment: competition of 1% D47 bubble binding to HAEC; TKPPR 100 µM
[28] = target: binding target for TKPPR on HAEC (human aortic endothelial cells); experiment: competition of 1% D47 bubble binding to HAEC; TKPPR 2.5 µM
[29] = target: binding target for TKPPR on HAEC (human aortic endothelial cells); experiment: competition of 1% D56 bubble binding to HAEC; TKPPR 2.5 µM
[30] = target: binding target for TKPPR on HAEC (human aortic endothelial cells); experiment: competition of TKPPR-bead binding to HAEC; free TKPPR 10 µM
[31] = target: binding target for TKPPR on HAEC (human aortic endothelial cells); experiment: competition of TKPPR-bead binding to HAEC; free TKPPR 25 µM
[32] = target: binding target for TKPPR on HAEC (human aortic endothelial cells); experiment: competition of TKPPR-bead binding to HAEC; free TKPPR 50 µM
[33] = target: binding target for TKPPR on HAEC (human aortic endothelial cells); experiment: competition of TKPPR-bead binding to HAEC; free TKPPR 100 µM
[34] = target: binding target for TKPPR on HAEC (human aortic endothelial cells); experiment: competition of TKPPR-bead binding to HAEC; free TKPPR 200 µM
[35] = target: binding target for TKPPR on HAEC (human aortic endothelial cells); experiment: competition of TKPPR-bead binding to HAEC; free TKPPR 500 µM
[36] = target: binding target for TKPPR on HAEC (human aortic endothelial cells); experiment: competition of 1% D47 bubble binding to HAEC; free TKPPR 10 µM
[37] = target: binding target for TKPPR on HAEC (human aortic endothelial cells); experiment: competition of 1% D47 bubble binding to HAEC; free TKPPR 50 µM
[38] = target: binding target for TKPPR on HAEC (human aortic endothelial cells); experiment: competition of 5% D47 bubble binding to HAEC; free TKPPR 10 µM
[39] = target: binding target for TKPPR on HAEC (human aortic endothelial cells); experiment: competition of 5% D47 bubble binding to HAEC; free TKPPR 50 µM
[40] = target: binding target for TKPPR on HAEC (human aortic endothelial cells); experiment: competition of 1% D47 bubble binding to HAEC; free TKPPR 100 µM
[41] = target: binding target for TKPPR on HAEC (human aortic endothelial cells); experiment: competition of 1% D47 bubble binding to HAEC; free TKPPR 200 µM
[42] = target: binding target for TKPPR on HAEC (human aortic endothelial cells); experiment: competition of 10% D47 bubble binding to HAEC; free TKPPR 10 µM
[43] = target: binding target for TKPPR on HAEC (human aortic endothelial cells); experiment: competition of 10% D47 bubble binding to HAEC; free TKPPR 50 µM
[44] = target: binding target for TKPPR on HAEC (human aortic endothelial cells); experiment: competition of 5% D47 bubble binding to HAEC; free TKPPR 100 µM
[45] = target: binding target for TKPPR on HAEC (human aortic endothelial cells); experiment: competition of 5% D47 bubble binding to HAEC; free TKPPR 200 µM
[46] = target: binding target for TKPPR on HAEC (human aortic endothelial cells); experiment: competition of 10% D47 bubble binding to HAEC; free TKPPR 100 µM
[47] = target: binding target for TKPPR on HAEC (human aortic endothelial cells); experiment: competition of 10% D47 bubble binding to HAEC; free TKPPR 200 µM
[48] = target: binding target for TKPPR on HAEC (human aortic endothelial cells); experiment: competition of 1% composition bubble binding to HAEC; free TKPPR 5 µM
[49] = target: binding target for TKPPR on HAEC (human aortic endothelial cells); experiment: competition of 1% composition bubble binding to HAEC; free TKPPR 10 µM
[50] = target: binding target for TKPPR on HAEC (human aortic endothelial cells); experiment: competition of 1% composition bubble binding to HAEC; free TKPPR 25 µM
[51] = target: binding target for TKPPR on HAEC (human aortic endothelial cells); experiment: competition of 1% composition bubble binding to HAEC; free TKPPR 50 µM
[52] = target: binding target for TKPPR on HAEC (human aortic endothelial cells); experiment: competition of 1% composition bubble binding to HAEC; free TKPPR 100 µM
[53] = target: binding target for TKPPR on HAEC (human aortic endothelial cells); experiment: competition of 5% composition bubble binding to HAEC; free TKPPR 100 µM
[54] = target: binding target for TKPPR on RAEC (rabbit aortic endothelial cells); experiment: competition of 5% composition bubble binding to RAEC; free TKPPR 100 µM

- % more bubbles bound than with the 1% composition [1]: 31%
- Bubbles Bound [2]: 7050 bubbles
- bubble binding [2]: 1120 bubbles
- bubble binding [3]: 56 bubbles
- Bubbles Bound [4]: 737 bubbles
- Bubbles Bound- 1% [4]: 1640 bubbles
- Bubbles Bound- 5% [5]: 2780 bubbles
- Bubbles Bound [6]: 953 bubbles
- Bubbles Bound % [6]: 100 % of control
- Bubbles Bound- 10% [7]: 1860 bubbles
- Bubbles Bound [8]: 1250 bubbles
- HAEC bubbles bound [8]: 1420 bubbles
- RAEC bubbles bound [9]: 751 bubbles
- Bubbles Bound [10]: 555 bubbles
- Bubbles Bound [11]: 726 bubbles
- TKPPR-Bubbles bound [12]: 950 bubbles
- TKPPR-Bubbles bound [13]: 1520 bubbles
- TKPPR-Bubbles bound [14]: 1360 bubbles
- TKPPR-Bubbles bound [15]: 1020 bubbles
- Bubbles Bound [16]: 1250 bubbles
Binder: {DPPE′-Glutaryl}-GTKPPR-OH (also: held in phospholipid shell of microbubbles) [gas-filled microbubbles containing DPPE-Glu-GTKPPR (D47), composition I of Example 5]

- IC50 (VEGF receptors on HUVECs): 250 µM
- % inhibition of bubble binding [17]: 82.7%
- % more bubbles bound with competitor [18]: 19%
- Bubbles Bound in presence of competitor [19]: 790 bubbles
- Bubbles Bound % in presence of competitor [20]: 16 % of control
- Bubbles Bound in presence of competitor [21]: 528 bubbles
- Bubbles Bound- D47 Formulation, in presence of competitor [21]: 535 bubbles
- Bubbles Bound in presence of competitor [22]: 106 bubbles
- Bubbles Bound- D47 Formulation, in presence of competitor [22]: 75 bubbles
- Bubbles Bound in presence of competitor [23]: 56 bubbles
- Bubbles Bound- D47 Formulation, in presence of competitor [23]: 9 bubbles
- Bubbles Bound- D56 Formulation, in presence of competitor [24]: 833 bubbles
- Bubbles Bound- D56 Formulation, in presence of competitor [25]: 718 bubbles
- Bubbles Bound- D56 Formulation, in presence of competitor [26]: 462 bubbles
- Bubbles Bound in presence of competitor [27]: 17 bubbles
- Bubbles Bound- D47 Formulation, in presence of competitor [28]: 1240 bubbles
- Bubbles Bound- D56 Formulation, in presence of competitor [29]: 888 bubbles
- % Inhibition (average, n = 11) [30]: 30.8%
- % Inhibition (average, n = 11) [31]: 50.7%
- % Inhibition (average, n = 11) [32]: 50.5%
- % Inhibition (average, n = 11) [33]: 62%
- % Inhibition (average, n = 11) [34]: 72.2%
- % Inhibition (average, n = 11) [35]: 70.6%
- Bubbles Bound- 1%, in presence of competitor [36]: 10 bubbles
- Bubbles Bound- 1%, in presence of competitor [37]: 5 bubbles
- Bubbles Bound- 5%, in presence of competitor [38]: 1340 bubbles
- Bubbles Bound- 5%, in presence of competitor [39]: 440 bubbles
- Bubbles Bound- 1%, in presence of competitor [40]: 4 bubbles
- Bubbles Bound- 1%, in presence of competitor [41]: 4 bubbles
- Bubbles Bound- 10%, in presence of competitor [42]: 1090 bubbles
- Bubbles Bound- 10%, in presence of competitor [43]: 857 bubbles
- Bubbles Bound- 5%, in presence of competitor [44]: 12 bubbles
- Bubbles Bound- 5%, in presence of competitor [45]: 13 bubbles
- Bubbles Bound- 10%, in presence of competitor [46]: 399 bubbles
- Bubbles Bound- 10%, in presence of competitor [47]: 66 bubbles
- Average % Inhibition [48]: 45.7%
- Average % Inhibition [49]: 79.6%
- Average % Inhibition [50]: 82%
- Average % Inhibition [51]: 92.7%
- Average % Inhibition [52]: 93.7%
- HAEC bubbles bound in presence of competitor [53]: 58 bubbles
- RAEC bubbles bound in presence of competitor [54]: 21 bubbles
Binder: TKPPR [TKPPR (L-threonyl-L-lysyl-L-prolyl-L-prolyl-L-arginine)]
